# Data published in patent US20200317816A1 (Novartis, published 2020).
# Numbering of substitutions follows the chain as printed.
# B1: anti-FXI/FXIa antibody NOV1401 (antibody, human IgG1, lambda, V domains shown)
# VH: QVQLLESGGGLVQPGGSLRLSCAASGFTFSTAAMSWVRQAPGKGLEWVSGISGSGSSTYYADSVKGRFTISRDNSKNTLYLQMNSLRAEDTAVYYCARELSYLYSGYYFDYWGQGTLVTVSS
# VL: QSVLTQPPSASGTPGQRVTISCSGSSSNIGSNDVSWYQQLPGTAPKLLIYKNYNRPSGVPDRFSGSKSGTSASLAISGLQSEDEADYYCSAWDQRQFDVVFGGGTKLTVLG
# B2: IDT6 anti-NOV1401 Fab (Fab, V domains shown)
# VH: QVQLVQSGAEVKKPGESLKISCKGSGYSFTNYWIGWVRQMPGKGLEWMGIIFPGVSYTKYSPSFQGQVTISADKSISTAYLQWSSLKASDTAMYYCARGSDQTLRGSRAMDYWGQGTLVTVSS
# VL: QSALTQPASVSGSPGQSITISCTGTSSDVGISNYVSWYQQHPGKAPKLMIYEVSNRPSGVSNRFSGSKSGNTASLTISGLQAEDEADYYCQSYTSLNYVFGGGTKLTVLG
# notes: Human Fab with a lambda light chain; The heavy chain entry is VH-CH1 (Fd); also called antidote
# B3: IDT1 anti-NOV1401 Fab (Fab, V domains shown)
# VH: QVQLLESGGGLVQPGGSLRLSCAASGFTFSDYAMSWVRQAPGKGLEWVSVIDYSSSNTYYADSVKGRFTISRDNSKNTLYLQMNSLRAEDTAVYYCAREGYSYRSIRFDYWGQGTLVTVSS
# VL: DIQMTQSPSSLSASVGDRVTITCRASQSISSNLNWYQQKPGKAPKLLIYAASNLQSGVPSRFSGSGSGTDFTLTISSLQPEDFATYYCLQFDHTPFTFGQGTKVEIKR
# notes: The heavy chain entry is VH-CH1 (Fd); also called antidote
# B4: IDT2 anti-NOV1401 Fab (Fab, V domains shown)
# VH: QVQLVESGGGLVKPGGSLRLSCAASGFTFSSAAVHWVRQAPGKGLEWVGRIKSKADGGTTDYAAPVKGRFTISRDDSKNTLYLQMNSLKTEDTAVYYCARDSPSISSYSIPYFSGMDVWGQGTLVTVSS
# VL: DIQMTQSPSSLSASVGDRVTITCRASQGIRAWLNWYQQKPGKAPKLLIYAASSLQSGVPSRFSGSGSGTDFTLTISSLQPEDFATYYCHQYITHPPTFGQGTKVEIKR
# notes: Human Fab; The heavy chain entry is VH-CH1 (Fd); also called antidote
# B5: IDT9 anti-NOV1401 Fab (Fab, V domains shown)
# VH: QVQLVQSGAEVKKPGASVKVSCKASGYTFTNYYVHWVRQAPGQGLEWMGWINPYNGNTNYAQKFQGRVTMTRDTSISTAYMELSRLRSEDTAVYYCARGASSIRMSYYLDVWGQGTLVTVSS
# VL: B3 VL with S31N, N32Y, L89F, F91Y, D92T, T94S, F96A
# notes: as for B4
# B6: IDT7 anti-NOV1401 Fab (Fab, V domains shown)
# VH: QVQLVESGGGLVKPGGSLRLSCAASGFTFSSNAMHWVRQAPGKGLEWVGRIKSKTDGGTTDYAAPVKGRFTISRDDSKNTLYLQMNSLKTEDTAVYYCARDHYYYPFAYWGQGTLVTVSS
# VL: B4 VL with G28S, A31Y, W32N, N34A, T93A, H94K, P96I
# notes: as for B4
# B7: IDT8 anti-NOV1401 Fab (Fab, V domains shown)
# VH: B6 VH with D56S
# VL: B4 VL with G28S, A31Y, W32N, N34A, T93A, H94K, P96I
# notes: as for B4
# B8: IDT10 anti-NOV1401 Fab (Fab, V domains shown)
# VH: B5 VH with N55S
# VL: B3 VL with S31N, N32Y, L89F, F91Y, D92T, T94S, F96A
# notes: as for B4
# B9: IDT3 anti-NOV1401 Fab (Fab, V domains shown)
# VH: B4 VH with S30Q
# VL: B4 VL
# notes: as for B4
# B10: IDT4 anti-NOV1401 Fab (Fab, V domains shown)
# VH: B4 VH with D56S
# VL: B4 VL
# notes: as for B4
# B11: IDT5 anti-NOV1401 Fab (Fab, V domains shown)
# VH: B4 VH with G57A
# VL: B4 VL
# notes: as for B4
# Target: Human FXI in normal human plasma (human, UniProt P03951 19-625)
# Sequence (P03951 19-625 C226S limits assumed): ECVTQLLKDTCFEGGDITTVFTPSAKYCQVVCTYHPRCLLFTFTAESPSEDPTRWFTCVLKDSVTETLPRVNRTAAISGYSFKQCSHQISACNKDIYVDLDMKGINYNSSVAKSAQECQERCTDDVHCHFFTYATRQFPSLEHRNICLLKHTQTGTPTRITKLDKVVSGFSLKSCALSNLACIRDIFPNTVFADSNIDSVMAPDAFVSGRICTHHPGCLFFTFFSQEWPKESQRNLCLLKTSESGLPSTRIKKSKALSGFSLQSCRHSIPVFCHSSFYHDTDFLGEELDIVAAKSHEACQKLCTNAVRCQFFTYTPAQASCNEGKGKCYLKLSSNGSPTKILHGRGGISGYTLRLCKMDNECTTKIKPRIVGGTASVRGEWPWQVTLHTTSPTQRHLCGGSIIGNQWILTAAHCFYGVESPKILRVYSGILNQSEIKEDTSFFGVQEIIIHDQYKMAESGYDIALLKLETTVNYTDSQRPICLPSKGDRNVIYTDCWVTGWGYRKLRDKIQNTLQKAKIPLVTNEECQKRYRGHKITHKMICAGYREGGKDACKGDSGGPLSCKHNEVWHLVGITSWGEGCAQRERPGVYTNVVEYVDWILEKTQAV
# Assay: cell-based or functional assay
row,Binder,IC50 of NOV1401 for reduction of peak thrombin in the TGA in human plasma
1,B1,50 nM

# Target: B1
# Assay: cell-based or functional assay
Binder,"percentage reversal of NOV1401 aPTT prolongation, NOV1401/anti NOV1401 ratio 1/1 (n/n)","percentage reversal of NOV1401 aPTT prolongation, NOV1401/anti NOV1401 ratio 1/3 (n/n)","percentage reversal of NOV1401 aPTT prolongation, NOV1401/anti NOV1401 ratio 1/10 (n/n)"
B2,9%,22%,38%
B3,12%,45%,64%
B4,21%,42%,55%
B5,10%,25%,46%
B6,16%,37%,54%
B7,8%,25%,42%
B8,12%,25%,40%
B9,9%,35%,58%
B10,10%,27%,39%
B11,17%,42%,56%

# Target: B1
# Assay: cell-based or functional assay
# Remark: another data set of the same source
Binder,"percentage reversal of the NOV1401 effect on thrombin generation (TGA), NOV1401/anti NOV1401 ratio 1/1 (n/n)","percentage reversal of the NOV1401 effect on thrombin generation (TGA), NOV1401/anti NOV1401 ratio 1/3 (n/n)","percentage reversal of the NOV1401 effect on thrombin generation (TGA), NOV1401/anti NOV1401 ratio 1/10 (n/n)"
B2,18%,41%,37%
B3,49%,55%,55%
B4,55%,57%,61%
B5,41%,61%,72%
B6,50%,66%,71%
B7,41%,56%,69%
B8,37%,45%,57%
B9,31%,47%,67%
B10,33%,53%,60%
B11,55%,56%,72%

# Target: B1
# Assay: SPR (ProteOn XPR36), NOV1401 amine-coupled on the chip, Fab as analyte 0.125-4 nM, Langmuir 1:1 fit, 25 C; n=1
# Description: (§1) SPR binding experiments were performed on a ProteOn XPR36 instrument (Bio-Rad Laboratories, Inc.) in PBS/T buffer (50 mM phosphate, 150 mM NaCl, pH 7.4, 0.005% v/v Tween-20) at 25° C. […] Unreacted groups were blocked by injecting 1 M ethanolamine.
# (§2) Blank surfaces were used for background corrections. There was no need to regenerate surfaces since the ProteOn protein interaction array system allows to run up to six binding experiments on an identical surface in parallel.
# (§3) Data processing and analysis including kon, koff, and KD determination were performed with the ProteOn Manager™ software version 3.1.0.6. Sensorgrams were fitted by applying a Langmuir 1:1 binding model (Rmax set at global) and dissociation constants were calculated from kon and koff.
row,Binder,Kd
1,B4,0.23 nM

# Target: B1
# Assay: SPR (ProteOn XPR36), NOV1401 amine-coupled on the chip, Fab as analyte 0.125-4 nM, Langmuir 1:1 fit, 25 C; average of n=2
# Description: as §1, §2, §3
row,Binder,Kd
1,B2,10.1 nM
2,B3,0.44 nM
3,B5,1.92 nM
4,B6,0.33 nM
5,B7,2.15 nM
6,B8,5.97 nM
7,B9,0.24 nM
8,B10,0.31 nM
9,B11,0.35 nM

# Target: B1
# Assay: solution equilibrium titration (SET), constant Fab with NOV1401 titrated in solution, free Fab captured on biotinylated NOV1401, 1:1 fit; average of n=2
# Description: (§4) After washing the plate again three times, 30 μl of detection reagent (LumiGLO Peroxidase Chemiluminescent Substrate, KPL#54-61-01) was added to each well. Electrochemiluminescence (ECL) signals were generated and detected immediately with a luminescence imager (SpectraMax M5, Molecular Devices, LLC).
# (§5) Average ECL-signals were calculated from duplicate measurements within each assay. Data were baseline adjusted by subtracting the lowest value from all data points and plotted against the corresponding antigen concentration.
row,Binder,Kd
1,B3,0.11 nM
2,B5,0.68 nM
3,B6,0.96 nM
4,B8,1.19 nM
5,B9,0.1 nM
6,B10,0.97 nM

# Target: B1
# Assay: solution equilibrium titration (SET), constant Fab with NOV1401 titrated in solution, free Fab captured on biotinylated NOV1401, 1:1 fit; average of n=3
# Description: as §4, §5
row,Binder,Kd
1,B4,0.1 nM
2,B7,0.16 nM
3,B11,0.14 nM

# Target: B1
# Assay: Solution equilibrium titration (SET): constant Fab, NOV1401 titrated in solution, free Fab captured on biotinylated NOV1401, luminescence (RLU) read, 1:1 fit
# Description: as §4, §5
row,Binder,Kd
1,B6,0.16 nM
2,B7,0.96 nM
